This note sets out measurements from PMC9712074 (Cell Reports, 2022).

This experiment concerns the target SARS-CoV-2 Omicron BA.1 RBD (SARS-CoV-2 Omicron BA.1, strain).

B1: BD55-3372 (antibody, V domains shown)
VH: EVHLVESGGGLVKPGGSLRLSCAASGFTFSNYAMNWVRQAPGKGLQWVSSITGSSSFIFYADSVKGRFTIVRDNAQNSLYLQMNSLRDEDTAVYYCARERDDYDTRLDWGQGTLVTVSS
VL: QPMLTQPPSVSGAPGQTVTISCVGSSSNIGAGYEVHWYQQLPGTAPKRLLSGNSDRPSGVPDRFSGSKSGTSASLAITGLQADDEADYYCQSYDSSLSLSAVVFGGGTKLTVL
B1: the binding result is reported as “binds”.
